From patent US20050042624A1, “Tumor antigen” (Kyogo ITOH, priority 2001, published 2005)

Tested on: OK-CTLd
Assay: IFN-γ production from OK-CTLd against COS-7 cells co-transfected with cDNA clone and HLA-A0207 (ELISA)
Type: cell-based, human
Method: Cryopreserved OK-CTLd was cultured in the presence of 100 U/ml of IL-2 for 2 weeks or more to use in the experiments.
A cDNA library of SW620 cells was pooled so that each pool contained 100 clones, and 200 ng of the cDNA pooled in each well and 200 ng of the HLA-A0207 cDNA were mixed in 100 ul of lipofectoamine (Invitrogen Corp.)/Opti-MEM (Invitrogen Corp.) 1:200 mixture for 30 min. 50 μl of the obtained mixture was added to a simian kidney cell line COS-7 (1×10^4), and incubated for 6 h for co-transduction. Then, RPMI-1640 culture medium containing 10% FCS was added to and culturing was carried out for 2 days, followed by addition of OK-CTLd (2×10^5) to each well. After a further 18 h incubation, 100 μl of the supernatant was collected, and IFN-γ production was measured by ELISA. In this case, as a negative control, using COS-7 cells into which the gene had not been transfected as a target, IFN-γ production from OK-CTLd was examined and the value of IFN-γ produced was subtracted as a background from that of each measurement.
A pool of cDNA library was screened with the criteria in which cDNA capable of enhancing IFN-γ production from OK-CTLd was judged as a positive one having CTL-activating ability. […]

B1: SW620-cl.48: cDNA clone from SW620 encoding SW620-48-PP (nucleic acid, listed as Homo sapiens)
DNA: CCTTTCCAAGGGAGTGGTTGTGTGATCGCCATCTTAGGGAAAAGATGTTCTCGTCCGTGGCGCACCTGGCGCGGGCGAACCCCTTCAACACGCCACATCTGCAGCTGGTGCACGATGGTCTCGGGGACCTCCGCAGCAGCTCCCCAGGGCCCACGGGCCAGCCCCGCCGCCCTCGCAACCTGGCAGCCGCCGCCGTGGAAGAGTACAGTTGTGAATTTGGCTCCGCGAAGTATTATGCACTGTGTGGCTTTGGTGGGGTCTTAAGTTGTGGTCTGACACACACTGCTGTGGTTCCCCTGGATTTAGTGAAATGCCGTATGCAGGTGGACCCCCAAAAGTACAAGGGCATATTTAACGGATTCTCAGTTACACTTAAAGAGGATGGTGTTCGTGGTTTGGCTAAAGGATGGGCTCCGACTTTCCTTGGCTACTCCATGCAGGGACTCTGCAAGTTTGGCTTTTATGAAGTCTTTAAAGTCTTGTATAGCAATATGCTTGGAGAGGAGAATACTTATCTCTGGCGCACATCACTATATTTGGCTGCCTCTGCCAGTGCTGAATTCTTTGCTGACATTGCCCTGGCTCCTATGGAAGCTGCTAAGGTTCGAATTCAAACCCAGCCAGGTTATGCCAACACTTTGAGGGATGCAGCTCCCAAAATGTATAAGGAAGAAGGCCTAAAAGCATTCTACAAGGGGGTTGCTCCTCTCTGGATGAGACAGATACCATACACCATGATGAAGTTCGCCTGCTTTGAACGTACTGTTGAAGCACTGTACAAGTTTGTGGTTCCTAAGCCCCGCAGTGAATGTTCAAAGCCAGAGCAGCTGGTTGTAACATTTGTAGCAGGTTACATAGCTGGAGTCTTTTGTGCAATTGTTTCTCACCCTGCTGATTCTGTGGTATCTGTGTTGAATAAAGAAAAAGGTAGCAGTGCTTCTCTGGTCCTCAAGAGACTTGGATTTAAAGGTGTATGGAAGGGACTGTTTGCCCGTATCATCATGATTGGTACCCTGACTGCACTACAGTGGTTTATCTATGACTCCGTGAAGGTCTACTTCAGACTTCCTCGCCCTCCTCCACCCGAGATGCCAGAGTCTCTGAAGAAGAAGCTTGGGTTAACTCAGTAGTTAGATCAAAGCAAATGTGGACTGAATCTGCTTGTTGATCAGTGTTGAAGAAAGTGCAAAAGGAACTTTTATATATTTGACAGTGTAGGAAATTGTCTATTCCTGATATAATTACTGTAGTACTCTTGCTTAAGGCAAGAGTTTCAGATTTACTGTTGAAATAAACCCAACTCTTCATGAAAAAAAAAAAAAAA
recognition of cDNA clone by OK-CTLd, enhancement of IFN-γ production: recognized by OK-CTLd in an HLA-A2-restricted manner and in a dose dependent manner of plasmid
